# From US20220177587A1, “METHODS AND USES OF VARIANT CD80 FUSION PROTEINS AND RELATED CONSTRUCTS” (Alpine Immune Sciences, Inc., priority 2018, published 2022)
# Like-named read-outs stand apart in the source and are kept apart here.
# Columns and labels:
# PD-L1 (human) [1] = molecular target: PD-L1 (human) (UniProt Q9NZQ7); assay: flow cytometry, CHO cells expressing huPD-L1
# Target sequence in this assay (Q9NZQ7 19-290): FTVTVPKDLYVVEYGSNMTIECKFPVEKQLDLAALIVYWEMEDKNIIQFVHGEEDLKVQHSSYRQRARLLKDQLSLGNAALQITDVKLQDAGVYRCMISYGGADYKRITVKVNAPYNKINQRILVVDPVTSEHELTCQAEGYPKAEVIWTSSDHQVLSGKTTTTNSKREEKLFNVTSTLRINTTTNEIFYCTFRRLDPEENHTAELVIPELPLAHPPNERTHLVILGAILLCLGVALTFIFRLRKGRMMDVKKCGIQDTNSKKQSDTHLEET
# PD-L1 (human) [2] = molecular target: PD-L1 (human) (UniProt Q9NZQ7); assay: flow cytometry, CHO cells expressing huPD-L1; remark: listed apart in the source
# CD28 (human) [3] = molecular target: CD28 (human) (UniProt P10747); assay: flow cytometry, Jurkat/IL2 reporter cells (CD28)
# CD28 (human) [4] = molecular target: CD28 (human) (UniProt P10747); assay: flow cytometry, Jurkat/IL2 reporter cells (CD28); remark: listed apart in the source
# human CTLA-4 (human) [5] = molecular target: human CTLA-4 (human) (UniProt P16410); assay: flow cytometry, CHO cells expressing huCTLA-4
# human CTLA-4 (human) [6] = molecular target: human CTLA-4 (human) (UniProt P16410); assay: flow cytometry, CHO cells expressing huCTLA4
# CD28 (human) [7] = molecular target: CD28 (human) (UniProt P10747); assay: flow cytometry, Jurkat cells (CD28)
# CD28 (human) [8] = molecular target: CD28 (human) (UniProt P10747); assay: flow cytometry, Jurkat cells (CD28); MFI over CD80 WT IgV-Fc
# PD-L1 (human) [9] = molecular target: PD-L1 (human) (UniProt Q9NZQ7); assay: flow cytometry, CHO/PD-L1 cells; MFI over CD80 WT IgV-Fc
# Target sequence in this assay (Q9NZQ7 19-290): as above
# human CTLA-4 (human) [10] = molecular target: human CTLA-4 (human) (UniProt P16410); assay: flow cytometry, CHO cells stably expressing CTLA4
# PD-L1 (human) [11] = molecular target: PD-L1 (human) (UniProt Q9NZQ7); assay: flow cytometry, CHO cells stably expressing PD-L1
# Target sequence in this assay (Q9NZQ7 19-290): as above
# human CTLA-4 (human) [12] = molecular target: human CTLA-4 (human) (UniProt P16410); assay: flow cytometry, CHO/CTLA4 cells; MFI over CD80 WT IgV-Fc
# CD28 (human) [13] = molecular target: CD28 (human) (UniProt P10747)
# CD28 (human) [14] = molecular target: CD28 (human) (UniProt P10747); assay: flow cytometry, Jurkat cells (CD28); remark: listed apart in the source
# human CTLA-4 (human) [15] = molecular target: human CTLA-4 (human) (UniProt P16410); assay: flow cytometry, CHO cells stably expressing CTLA4; remark: listed apart in the source
# CD28 (human) [16] = molecular target: CD28 (human) (UniProt P10747); assay: flow cytometry, Jurkat/IL2 reporter cells (endogenous CD28)
# PD-L1 (human) [17] = molecular target: PD-L1 (human) (UniProt Q9NZQ7); assay: flow cytometry, CHO cells expressing huPD-L1; remark: listed apart in the source
# PD-L1 (human) [18] = molecular target: PD-L1 (human) (UniProt Q9NZQ7); assay: flow cytometry, CHO cells stably expressing PD-L1; remark: listed apart in the source
# Target sequence in this assay (Q9NZQ7 19-290): as above
# PD-L1 (human) [19] = molecular target: PD-L1 (human) (UniProt Q9NZQ7)
# Target sequence in this assay (Q9NZQ7 19-290): as above
# CD28 (human) [20] = molecular target: CD28 (human) (UniProt P10747); remark: listed apart in the source
# CD28 (human) [21] = molecular target: CD28 (human) (UniProt P10747); assay: flow cytometry, Jurkat cells (CD28); remark: listed apart in the source
# human CTLA-4 (human) [22] = molecular target: human CTLA-4 (human) (UniProt P16410); assay: flow cytometry, CHO cells stably expressing CTLA4; remark: listed apart in the source
# PD-L1 (human) [23] = molecular target: PD-L1 (human) (UniProt Q9NZQ7); assay: flow cytometry, MFI on CHO/PD-L1 over MFI on Jurkat (CD28)
# Target sequence in this assay (Q9NZQ7 19-290): as above
# PD-L1 (human) [24] = molecular target: PD-L1 (human) (UniProt Q9NZQ7); assay: flow cytometry, CHO/huPD-L1 cells; vs WT CD80 ECD-Fc (Abcam)
# PD-L1 (human) [25] = molecular target: PD-L1 (human) (UniProt Q9NZQ7); remark: listed apart in the source
# CD28 (human) [26] = molecular target: CD28 (human) (UniProt P10747); remark: listed apart in the source
# human CTLA-4 (human), sequence (P16410 36-223): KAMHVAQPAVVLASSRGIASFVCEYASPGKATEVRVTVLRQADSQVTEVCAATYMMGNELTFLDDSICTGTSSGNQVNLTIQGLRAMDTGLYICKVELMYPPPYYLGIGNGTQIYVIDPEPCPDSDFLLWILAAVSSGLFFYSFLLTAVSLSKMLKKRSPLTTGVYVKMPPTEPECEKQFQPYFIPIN
substance,measurement,setting,value
variant CD80 IgV-Fc E35D/M47V/N48K/V68M/K89N (Fc fusion),MFI at 33.3 nM,PD-L1 (human) [1],14800 MFI
same,MFI at 33.3 nM,PD-L1 (human) [2],89800 MFI
same,MFI at 33.3 nM,CD28 (human) [3],1350 MFI
same,MFI at 33.3 nM,CD28 (human) [4],11700 MFI
same,MFI at 33.3 nM,human CTLA-4 (human) [5],20900 MFI
same,MFI at 33.3 nM,human CTLA-4 (human) [6],807 MFI
variant CD80 IgV-Fc (inert) H18A/A26N/E35D/M47L/V68M/A71G/D90G (Fc fusion),MFI at 33.3 nM,CD28 (human) [7],4910 MFI
same,Fold change to WT CD80,CD28 (human) [8],48.2 fold
same,Fold change to WT CD80,PD-L1 (human) [9],220 fold
same,MFI at 33.3 nM,human CTLA-4 (human) [10],21400 MFI
same,MFI at 33.3 nM,PD-L1 (human) [11],36300 MFI
same,Fold change to WT CD80,human CTLA-4 (human) [12],15.4 fold
variant CD80 IgV-Fc E35D/M47I/Y87Q/K89E (Fc fusion),MFI at 33.3 nM,PD-L1 (human) [2],29800 MFI
same,MFI at 33.3 nM,CD28 (human) [4],15500 MFI
variant CD80 IgV-Fc E35D/A71D (SEQ ID NO 194) (Fc fusion),Fold increase in IL2 reporter signal (Jurkat/IL2 reporter assay) (fold vs WT CD80 IgV-Fc),CD28 (human) [13],0.2
variant CD80 IgV-Fc (inert) H18A/A26P/E35D/M47L/V68M/A71G/D90G (Fc fusion),MFI at 33.3 nM,CD28 (human) [7],4730 MFI
same,Fold change to WT CD80,CD28 (human) [8],46.4 fold
same,Fold change to WT CD80,PD-L1 (human) [9],203 fold
same,MFI at 33.3 nM,human CTLA-4 (human) [10],23800 MFI
same,MFI at 33.3 nM,PD-L1 (human) [11],33400 MFI
same,Fold change to WT CD80,human CTLA-4 (human) [12],17.2 fold
variant CD80 IgV-Fc Q33L/E35D/M43I/Y53F/T62S/L85Q (Fc fusion),MFI at 33.3 nM,PD-L1 (human) [2],72100 MFI
same,MFI at 33.3 nM,CD28 (human) [4],1024 MFI
variant CD80 IgV-Fc (inert) H18V/A26S/E35D/M47L/V68M/A71G/D90G (Fc fusion),MFI at 33.3 nM,CD28 (human) [7],8060 MFI
same,Fold change to WT CD80,CD28 (human) [8],79 fold
same,Fold change to WT CD80,PD-L1 (human) [9],448 fold
same,MFI at 33.3 nM,human CTLA-4 (human) [10],24900 MFI
same,MFI at 33.3 nM,PD-L1 (human) [11],73900 MFI
same,Fold change to WT CD80,human CTLA-4 (human) [12],18 fold
WT CD80 ECD-Fc (control of Table E5) (Fc fusion),Fold increase in IL2 reporter signal (Jurkat/IL2 reporter assay) (fold vs WT CD80 IgV-Fc),CD28 (human) [13],0.93
variant CD80 IgV-Fc V22L/M38V/M47T/A71D/L85M (Fc fusion),Fold increase in IL2 reporter signal (Jurkat/IL2 reporter assay) (fold vs WT CD80 IgV-Fc),CD28 (human) [13],0.43
variant CD80 IgV-Fc A26E/E35D/M47L/A71G (Fc fusion),MFI at 33.3 nM,PD-L1 (human) [2],53400 MFI
same,MFI at 33.3 nM,CD28 (human) [14],236 MFI
same,MFI at 33.3 nM,CD28 (human) [4],2160 MFI
same,MFI at 33.3 nM,human CTLA-4 (human) [6],341000 MFI
same,MFI at 33.3 nM,human CTLA-4 (human) [15],20600 MFI
WT CD80 ECD-Fc (R&D) (Fc fusion),MFI at 33.3 nM,PD-L1 (human) [2],11900 MFI
same,MFI at 33.3 nM,CD28 (human) [16],7630 MFI
same,MFI at 33.3 nM,CD28 (human) [4],18000 MFI
same,MFI at 33.3 nM,PD-L1 (human) [17],7940 MFI
CD80 IgV-Fc H18Y/E35D/M47I/V68M/Y87N (Fc fusion),MFI at 33.3 nM,PD-L1 (human) [18],9300 MFI
same,RLU at 5.0 nM: Fold Increase over WT CD80-IgV-Fc,PD-L1 (human) [19],5.5 fold
same,RLU at 5.0 nM: Fold Increase over WT CD80-IgV-Fc,CD28 (human) [20],5.5 fold
same,MFI at 33.3 nM,CD28 (human) [21],1430 MFI
same,MFI at 33.3 nM,human CTLA-4 (human) [22],19700 MFI
CD80 IgV-Fc H18Y/E35D/M47L/V68M/A71G/L85M (Fc fusion),Ratio of PDL1:CD28,PD-L1 (human) [23],3.5
same,Fold change to WT CD80,PD-L1 (human) [18],140 fold
same,MFI at 33.3 nM,PD-L1 (human) [18],9890 MFI
same,RLU at 5.0 nM: Fold Increase over WT CD80-IgV-Fc,PD-L1 (human) [19],5.5 fold
same,RLU at 5.0 nM: Fold Increase over WT CD80-IgV-Fc,CD28 (human) [20],5.5 fold
same,Fold change to WT CD80,CD28 (human) [21],69.1 fold
same,MFI at 33.3 nM,CD28 (human) [21],2850 MFI
same,Fold change to WT CD80,human CTLA-4 (human) [22],19.8 fold
same,MFI at 33.3 nM,human CTLA-4 (human) [22],20700 MFI
variant CD80 IgV-Fc E35D/A71D (SEQ ID NO 176) (Fc fusion),Fold increase in IL2 reporter signal (Jurkat/IL2 reporter assay) (fold vs WT CD80 IgV-Fc),CD28 (human) [13],0.36
variant CD80 IgV-Fc D46V/V68M (Fc fusion),MFI at 33.3 nM,PD-L1 (human) [1],2270 MFI
same,Fold change to WT CD80,PD-L1 (human) [24],17.7 fold
same,MFI at 33.3 nM,CD28 (human) [3],556 MFI
same,MFI at 33.3 nM,human CTLA-4 (human) [5],5330 MFI
variant CD80 IgV-Fc Q27H/E35D/D46V/M47L/A71G (Fc fusion),MFI at 33.3 nM,CD28 (human) [4],10400 MFI
CD80 IgV-Fc H18Y/E35D/M47L/Y53F/V68M/A71G (Fc fusion),Ratio of PDL1:CD28,PD-L1 (human) [23],20
same,RLU at 5.0 nM: Fold Increase over WT CD80-IgV-Fc,PD-L1 (human) [25],0.3 fold
same,RLU at 5.0 nM: Fold Increase over WT CD80-IgV-Fc,CD28 (human) [26],0.3 fold
same,Fold change to WT CD80,PD-L1 (human) [18],135 fold
same,MFI at 33.3 nM,PD-L1 (human) [18],9580 MFI
same,RLU at 5.0 nM: Fold Increase over WT CD80-IgV-Fc,PD-L1 (human) [19],5.7 fold
same,RLU at 5.0 nM: Fold Increase over WT CD80-IgV-Fc,CD28 (human) [20],5.7 fold
same,Fold change to WT CD80,CD28 (human) [21],11.6 fold
same,MFI at 33.3 nM,CD28 (human) [21],478 MFI
same,Fold change to WT CD80,human CTLA-4 (human) [22],18.7 fold
same,MFI at 33.3 nM,human CTLA-4 (human) [22],19500 MFI
CD80 IgV-Fc T13R/Q33L/E35D/M47V/T62S/V68M/L85M (Fc fusion),RLU at 5.0 nM: Fold Increase over WT CD80-IgV-Fc,PD-L1 (human) [25],0.3 fold
same,RLU at 5.0 nM: Fold Increase over WT CD80-IgV-Fc,CD28 (human) [26],0.3 fold
